The results in this text go back to patent US5532348 (United States of America, dated 1996).

Assay [1] concerns the target T1, GST fusion to HPV 11 E6 (human papillomavirus type 11, UniProt P04019).
T1 sequence: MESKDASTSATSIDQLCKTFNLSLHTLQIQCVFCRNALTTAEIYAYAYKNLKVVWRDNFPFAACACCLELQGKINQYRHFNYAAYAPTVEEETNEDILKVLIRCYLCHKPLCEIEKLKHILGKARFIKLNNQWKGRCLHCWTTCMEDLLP
The assay can be described thus: GST pull-down of 35S-labelled translate, no p53.

In assay [2] the target is GST (with no fusion) (Schistosoma japonicum (Blood fluke), UniProt P08515 = GST). In words: GST pull-down of 35S-labelled translate, no p53.
In assay [3] the target is GST-p53 (glutathione S-transferase fusion of wild-type p53) (Homo sapiens (Human), UniProt P04637). The assay can be described thus: GST-p53 pull-down of 35S-labelled E6-AP variant in the presence of HPV16 E6.
For assay [4], the target named is T2, HPV11 E6, wheat germ extract translated (human papillomavirus type 11, UniProt P04019).
T2 sequence: T1 sequence
In words: GST-E6-AP fusion on glutathione-Sepharose, 35S-labelled E6.

B1: 95 kd in vitro translated form of E6-AP (amino acids 37 to 865 of SEQ ID NO:1) (other)
chain: EACTNEFCASCPTFLRMDNKAAAIKALELYKINAKLCDPHPSKKGASSAYLENSKGAPNNSCSEIKMNKKGARIDFKDVTYLTEEKVYEILELCREREDYSPLIRVIGRVFSSAEALVQSFRKVKQHTKEELKSLQAKDEDKDEDEKEKAACSAAAMEEDSEEASSSRIGDSSQGDNNLQKLGPDDVSVDIDAIRRVYTRLLSNEKIETAFLNALVYLSPNVECDLTYHNVYSRDPNYLNLFIIGMENRNLHSPEYLEMALPLFCKAMSKLPLAAQGKLIRLWSKYNADQIRRMMETFQQLITYKVISNEFNSRNLVNDDDAIVAASKCLKMVYYANVVGGEVDTNHNEEDDEEPIPESSELTLQELLGEERRNKKGLRVDPLETELGVKTLDCRKPLIPFEEFINEPLNEVLEMDKDYTFFKVETENKFSFMTCPFILNAVTKNLGLYYDNRIRMYSERRITVLTSLVQGQQLNPYLRLKVRRKHIIDDALVRLEMIAMENPADLKKQLYVEFEGEQGVDEGGVSKEFFQLVVEEIFNPDIGMFTYDESTKLFWFNPSSFETEGQFTLIGIVLGLAIYNNCILDVHGPMVVYRKLMGKKGTFRDLGDSHPVLYQSLKDLLEYVGNVEDDMMITFQISQTNLFQNPMMYDLKENGDKIPITNENRKEFVNLYSDYILNKSVEKQFKAFRRGRHMVTNESPLKYLFRPEEIELLICGSRNLDFQALEETTEYDGGYTRDSVLIREFWEIVHSFTDEQKRLFLQFTTGRDRAPVGGLGKLKMIIAKNGPDTERLPTSHTCFNVLLLPEYSSKEKLKERLLKAITYAKGFGM
As for B1, the binding result in assay [1] and in assay [2] was “no binding” each time.

B2: E6-AP N-terminally truncated form beginning at amino acid 322 (other)
chain: YNADQIRRMMETFQQLITYKVISNEFNSRNLVNDDDAIVAASKCLKMVYYANVVGGEVDTNHNEEDDEEPIPESSELTLQELLGEERRNKKGLRVDPLETELGVKTLDCRKPLIPFEEFINEPLNEVLEMDKDYTFFKVETENKFSFMTCPFILNAVTKNLGLYYDNRIRMYSERRITVLTSLVQGQQLNPYLRLKVRRKHIIDDALVRLEMIAMENPADLKKQLYVEFEGEQGVDEGGVSKEFFQLVVEEIFNPDIGMFTYDESTKLFWFNPSSFETEGQFTLIGIVLGLAIYNNCILDVHGPMVVYRKLMGKKGTFRDLGDSHPVLYQSLKDLLEYVGNVEDDMMITFQISQTNLFQNPMMYDLKENGDKIPITNENRKEFVNLYSDYILNKSVEKQFKAFRRGRHMVTNESPLKYLFRPEEIELLICGSRNLDFQALEETTEYDGGYTRDSVLIREFWEIVHSFTDEQKRLFLQFTTGRDRAPVGGLGKLKMIIAKNGPDTERLPTSHTCFNVLLLPEYSSKEKLKERLLKAITYAKGFGM
Turning to B2, the binding result in assay [3] was “no binding”.

B3: GST-75 kDa E6-AP fusion protein (amino acids 212-865 of SEQ ID NO:1) (other)
chain: DNNLQKLGPDDVSVDIDAIRRVYTRLLSNEKIETAFLNALVYLSPNVECDLTYHNVYSRDPNYLNLFIIGMENRNLHSPEYLEMALPLFCKAMSKLPLAAQGKLIRLWSKYNADQIRRMMETFQQLITYKVISNEFNSRNLVNDDDAIVAASKCLKMVYYANVVGGEVDTNHNEEDDEEPIPESSELTLQELLGEERRNKKGLRVDPLETELGVKTLDCRKPLIPFEEFINEPLNEVLEMDKDYTFFKVETENKFSFMTCPFILNAVTKNLGLYYDNRIRMYSERRITVLTSLVQGQQLNPYLRLKVRRKHIIDDALVRLEMIAMENPADLKKQLYVEFEGEQGVDEGGVSKEFFQLVVEEIFNPDIGMFTYDESTKLFWFNPSSFETEGQFTLIGIVLGLAIYNNCILDVHGPMVVYRKLMGKKGTFRDLGDSHPVLYQSLKDLLEYVGNVEDDMMITFQISQTNLFQNPMMYDLKENGDKIPITNENRKEFVNLYSDYILNKSVEKQFKAFRRGRHMVTNESPLKYLFRPEEIELLICGSRNLDFQALEETTEYDGGYTRDSVLIREFWEIVHSFTDEQKRLFLQFTTGRDRAPVGGLGKLKMIIAKNGPDTERLPTSHTCFNVLLLPEYSSKEKLKERLLKAITYAKGFGM
With B3, the binding result in assay [4] is “no binding”.

B4: GST-E6-AP fusion protein with amino acids 371 to 440 of SEQ ID NO:1 (SEQ ID NO:2) (other)
chain: ANVVGGEVDTNHNEEDDEEPIPESSELTLQELLGEERRNKKGLRVDPLETELGVKTLDCRKPLIPFEEFI
On to B4, for which, in assay [4], the binding result was “no binding”.
